41 sequences from the nanobody polyreactivity screen of Harvey et al. (2022) can be followed below.

The data set is described as follows: yeast display, Sf9 membrane polyspecificity reagent, FACS + sequencing; frameworks hold sequencing errors. An outline of the steps: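 In a synthetic yeast display library (Saccharomyces cerevisiae BJ5465), nanobody expression was induced with galactose for 36–48 hours. FACS gates were set low and high (top ~1%) using anti-HA fluorescence for expression and streptavidin fluorescence for binding of the Sf9 membrane reagent. Each polyreactivity label is drawn from the gate of origin.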
Take “QVQLVDSGGGLVQAGGSLRLSCAASGRTFSPYMGWYRQAPGKEREFVAAISKSGGRTYYADSVKGRFTISRDNAKNTVYVQMNSLKPEDTAVYYCAAGAWRGPYSGYYYWGQGTQVTVSS”: the “polyreactivity (PSR sort gate)” value is “low polyreactivity”.

“QVQLVDSGGGLVQAGGSLRLSCAASGRTFYYNTMGWYRQAPGKERELVAAITYRGGRTYYADSVKGRFTISRDNAKNTVYLQMNSLKPEDTAVYYCAADWRGPGRTYKINKYDYWGQGTQVTVSS”: the “polyreactivity (PSR sort gate)” value is recorded as “high polyreactivity”.

In the case of “QVQLVDSGGGLVQAGGSLRLSCAASGRTISKYAMGWNRQAPVKERELVAAITGSGGSTHYADSVKGRFTISRDNAKNTVYLQMNSLKPEDSAVYYCAAVPRYQYGYWGQGTQVTVSS”, the “polyreactivity (PSR sort gate)” value is “low polyreactivity”.

For “QVQLVDSGGGLVQAGGSLRLSCAASGRTSYYNTMGWYRQAPGKERELVAAITGRGDSTYYADSVKGRFTISRDNAKNTVYLQMNSLKPEDTAVYYCAADELHLLYRVSKFVDYNHWGQGTQVTVSS”, the “polyreactivity (PSR sort gate)” value is “low polyreactivity”.

As for “QVQLVDSGGGLVQAGGSLRLSCAASGSIFPSYAIGWYRQAPGKERELVATIGRGGTTNYADSVKGRFTISRDNAKNTVYLQMNSLKPEDTSVYYCNAERIWRYKYGYDYWGQGTQVTVSS”, the “polyreactivity (PSR sort gate)” value is “high polyreactivity”.

“QVQLVDSGGGLVQAGGSLRLSCAASGSIFQQYAMGWYRQAPGKESELVAAISWGDGSTYYADSVKGRFPISRDNAKNTVYLQMNSLKPEDTAVYYCNAYASAPLWSLEDDYWGQGTQVTVSS”: the “polyreactivity (PSR sort gate)” value is “low polyreactivity”.

For the sequence “QVQLVDSGGGLVQAGGSLRLSCAASGSIFQYYAMGWYRQAPGKEMELVAAITSVSSTSYADSVKGRFTISRDNAKNTVYLQMNSLKPEDTAVYYCDAAFRRGLLKMDYWGQGTQVTVSS”, the “polyreactivity (PSR sort gate)” value is on record as “low polyreactivity”.

Consider “QVQLVDSGGGLVQAGGSLRLSCAASGSIFRGYAMGWYRPAPGKESGLVAAISRDGGSTYYADSVKGRFTISRDNAKNTVYLQMNSLKPEDTAVYYCAADYVAYATYGDGDYWGQGTQVTVSS”, for which the “polyreactivity (PSR sort gate)” value is “high polyreactivity”.

Turning to “QVQLVDSGGGLVQAGGSLRLSCAASGSIFRYNAMGWYREAPGKERVLVAAISWNGARTYYADSVKGRFTISRDNAKNTVYLQMNSLKPEDTAVYYCNAGTFTRRRGLDYWGQGTQVTGSS”, the “polyreactivity (PSR sort gate)” value was “low polyreactivity”.

On to “QVQLVDSGGGLVQAGGSLRLSCAASGSIFSAYAMGWYRQAPGKERELVAAITFGGSTYYADSVKGRFTISRDNAKNTVYLQMNSLKPEDTAVYYCNAYYPFVGLYLGHDYWGQGTQVTVSS”, for which the “polyreactivity (PSR sort gate)” value is “low polyreactivity”.

Consider “QVQLVDSGGGLVQAGGSLRLSCAASGSIFVNNTMGWYRQAPGKERELVAAISSSGGSTYYADSVKGRFTISRDNAKNTVYLQMNSLKPEDTAVYYCAAVNGYQYPQYYYNGYDYWGQGTQVTVSS”, for which the “polyreactivity (PSR sort gate)” value is recorded as “low polyreactivity”.

Regarding “QVQLVDSGGGLVQAGGSLRLSCAASGSIFVTYAMGWSRQAPAKERELVAAITDRGGSTYADSVKGRFTISRDNAKNTVYLQMNSLKPEDTAVYYCAADPDLGDAYDYWGQGTQVTVSS”, the “polyreactivity (PSR sort gate)” value was “low polyreactivity”.

For the sequence “QVQLVDSGGGLVQAGGSLRLSCAASGSSVKTYAMGWYRQAPGKERELVASISYSGDTTYADSVKGRFTISRDNAKNSVYLQMNSLKPEDTAVYYCAAGWYYYYYSYQYWDYDYWGQGTQVTVSS”, the “polyreactivity (PSR sort gate)” value is recorded as “high polyreactivity”.

In the case of “QVQLVDSGGGLVQAGGSLRLSCAASGSTFRGYAMGWYRQSPGKERELVAAITGSAGSTYYADSVKGRFTISRDNAKNTVYLQMNSLKPEDTAVYYCAAATSYRRYYYIYNYWGQGTQVTVSS”, the “polyreactivity (PSR sort gate)” value was “high polyreactivity”.

On to “QVQLVDSGGGLVQAGGSLRLSCAASGSTFRLYAMGWYRQAPGKERELVAAISQRGGSTYYADSVKGRFTISRDNAKNTVYLQKNSLKPEDTAVYYCNTDWYRKWGKPYYYWGQGTQVTVSS”, for which the “polyreactivity (PSR sort gate)” value is “high polyreactivity”.

With “QVQLVDSGGGLVQAGGSLRLSCAASGSTFVPNAMGWYRQAPGKERELVASITSDGGTYYADSVKGRFTISRDNAKNTVYLQMNSLKPEDTAVYYCAADDNGVWVISYWWFDYWGQGTQVTVSS”, the “polyreactivity (PSR sort gate)” value is reported as “high polyreactivity”.

As for “QVQLVDSGGGLVQAGGSLRLSCAASGSTLGENAMGWYRQAPGKERELVSAIRQSSGRTYYADSVKGRFTISRDNAKNTVYLQMNSLKPEDTAVYYCANYYWGQGTQVTVST”, the “polyreactivity (PSR sort gate)” value is “low polyreactivity”.

Consider “QVQLVDSGGGLVQAGGSLRLSCAASGYIFGDYVMGWYRQAPGKERELVASISSSGDTNYADSVKGRFTISRDNAMNTVYLQMNSLKPEDTAVYYCAAVDWIGRVHGKPWGGDYWGQGTQVTVSS”, for which the “polyreactivity (PSR sort gate)” value is “low polyreactivity”.

In the case of “QVQLVDSGGGLVQAGGSLRLSCAASGYTILSYVMGWNRQAPGKERELVAAIRRSGGSTYYADSVKGRFTISRDNAKNTVYLQMNSLKPEDTAVYYCNAPHHRYDWGQGTQVTVSS”, the “polyreactivity (PSR sort gate)” value was “high polyreactivity”.

“QVQLVDSGGGLVQAGGSLRLSCAPSGSTFGYNAMGWYRQAPGKERELVAAITWSGGSTYYADSVKGRFTISRDNAKNTVYLQMNSLKPEDTAVYYCAADDWYNSKWHYYSWGQGTQLTVSS”: the “polyreactivity (PSR sort gate)” value is reported as “low polyreactivity”.

Take “QVQLVDSGGGLVQAGGSLRLSCASSGRIFSEYAMGWYRQAPGKERELVAAISRRGGRTYYADSVKGRFTISRDNAKNTVYLQMNSLKPEDTAVYYCAADHGDPGGYDYWGQGTQVTVSS”: the “polyreactivity (PSR sort gate)” value is recorded as “high polyreactivity”.

Take “QVQLVDSGGGLVQAGGSLRLSCASSGRIFTKYSMGLYRQAPGKERELVAGISGSGTITYYADSVKGRFTISRDNAKNTVYLQMNSLKPVDSAVYYCNAGRVTNRTPRYDYWGQGTQVSVSS”: the “polyreactivity (PSR sort gate)” value is on record as “high polyreactivity”.

For the sequence “QVQLVDSGGGLVQAGGSLRLSCDASGLIFRYYTMGWYRQAPGKERELVATITKSGSSTYYADSVKGRFTISRDNAKNTVYLQMNSLKPEDTAVYYCAARAYPSSPRGVYAYYYWGQGTQVTVSS”, the “polyreactivity (PSR sort gate)” value was “high polyreactivity”.

“QVQLVDSGGGLVQAGGSLRLSCDASGSIFYPYALGCYIQAPGKERELVAAITTSGGSTYYADSVKGRFTISRDNAKNTVYLQMNSLKPEATAVYYCSASYYSDIWPYSVYDLEFYWGQGTQVTVSS”: the “polyreactivity (PSR sort gate)” value is “high polyreactivity”.

In the case of “QVQLVDSGGGLVQAGGSLRLSCPASGFTFVIYAMGWYRQEPGKESELVAAIRSGGRTYYADSVKGRFTISRDNAKNTVYLQMNSLKPEDTAVYYCAAVPDLKWFGYEYWGQGTQVTVSS”, the “polyreactivity (PSR sort gate)” value was “high polyreactivity”.

Take “QVQLVDSGGGLVQAGGSLRLSCPASGIIIARNTMGWYRQAPGKERELVAAISTRGTTTYYADSVKGRFTISRDNAKNTVYLQMNSLKPEDTAVYSCAAFRVHTDRYNYWGQGTQVTVSS”: the “polyreactivity (PSR sort gate)” value was “high polyreactivity”.

“QVQLVDSGGGLVQAGGSLRLSCPASGRIFSWYAMGWYRQAPGKERELVATISSTGGSTYYADSVKGRFTISRDNAKNTVYLQMNSLKAEHTAVYYCNAVVYGIFLYAWYDYWGQGTQVTVSS”: the “polyreactivity (PSR sort gate)” value is given as “low polyreactivity”.

For “QVQLVDSGGGLVQAGGSLRLSCPASGSTIAWYDMGWYRQEPGKEREFVAAIDYGGGSTYADSVKGRFTISRDNAKNTVYLQMNSLKPDDTAVYYCNADYWVYLYDYWGQGTLVTVSS”, the “polyreactivity (PSR sort gate)” value is “low polyreactivity”.

For the sequence “QVQLVDSGGGLVQAGGSLRLSCSASGYTFALYSMGWYRQAPGKERELVADINIGGASTYYADSVKGRFTISRDNAKNTVYLQMNSLKPEDTAVYYCAKEYYDGYFPTFDYDYWGQGTQVTVSS”, the “polyreactivity (PSR sort gate)” value is “low polyreactivity”.

Consider “QVQLVDSGGGLVQAGGSLSLSCADSGFIFRAYEMGSYRQAPGNERALVAAISGSGGRTYYSDSVNGRFTISRDNAKNTVYLQKNSLKPEDTAVYYGKADFHYSIPGHAFATVYYWGQGTQVTVSS”, for which the “polyreactivity (PSR sort gate)” value is “low polyreactivity”.

In the case of “QVQLVDSGGGLVQAGGTLRLSCAASGSTFRYYAMGWYRQAPGKERELVAAISWNGGRTYYADSVKGRFTISRDNAKNTVYLQMNSLKPEDSAVYYCDAVHYVAYYGYDFWGQGTQVTVSS”, the “polyreactivity (PSR sort gate)” value is “high polyreactivity”.

For “QVQLVDSGGGLVQAGVRLRLSCAASGNIFSAYAMGWYRQAPGKERELVASIDWNGGRTYYADSVKGRFTISRDNAKNTVYLQMNSLKPEDTAVYYCNAGYSYRKYDYLGQGTQVTVSS”, the “polyreactivity (PSR sort gate)” value is reported as “high polyreactivity”.

Consider “QVQLVDSGGGLVQAGVSLRISCAASGSTFYANAMGWYRQAPGKERELVATITSSGTSTYYGDSVKGRFTISRDNAKNTFYLQMNSLKPEDIAVYYCAAEYSLLYWEFDYWGQGTQVTVSS”, for which the “polyreactivity (PSR sort gate)” value was “low polyreactivity”.

Take “QVQLVDSGGGLVQEGGRLRLSCAASGSIYDQYDMGWYRQAPGKERELVAAISNRGGCTYYADSVKGRFTISRDNAKNTVYLQMNSLKPEDTAVYYCAARKYWGYGTRYFYWGQGTQVTVSS”: the “polyreactivity (PSR sort gate)” value was “high polyreactivity”.

“QVQLVDSGGGLVQEGGSLRLRCAASGYTFDWYAMGWYRQAPGKERELVAAINSGGGTYYADSVKGRFTISRDNAKNSVYLQMNSLKPEDTAVYYCAKYTYDYWGQGTQVTVSS”: the “polyreactivity (PSR sort gate)” value is listed as “low polyreactivity”.

With “QVQLVDSGGGLVQEGGSLRLSCAASGRIFWYYDMGWYRQAPGKERELVAAISQRGGSTYYADSVKGRFTISRDNAKNTVYLQMNSLKPEDTAVYYCAKRNPYWATREYWGQGTQVTVSS”, the “polyreactivity (PSR sort gate)” value is recorded as “high polyreactivity”.

Take “QVQLVDSGVGLVQAGGRLRLSCAASGRIFPFNAMGWYRQSPGKERELVAAITSSGGRTYYADSVKGRFTISRDNAKNTVYLQMNSLKPVDTAVYYCAATLVRRARSGPMGYWGQGTQVTVSS”: the “polyreactivity (PSR sort gate)” value was “high polyreactivity”.

“QVQLVDSRGGLVQAGGSLRLSCAASGNTFGFNAMGWNRQARGKERHLVAAITWSVGRTYYADSVKRRFTISRDHAKNTVYLEMNSLKPEDTAVYYCAKDFEAGDDYFAYDYWGQGTQVTVSS”: the “polyreactivity (PSR sort gate)” value is “low polyreactivity”.

With “QVQLVDSRGGLVQAGGSLRLSCAASGSTFVNYAMGWYRQAPGKAWELVAAITANGGRTYYADSVKGRFTISRDNAKNTVYLQMNSLKPEDTAVYYCNTESNLYRRRRNYWGQGTQVTVSS”, the “polyreactivity (PSR sort gate)” value is “low polyreactivity”.

Consider “QVQLVDSSGGLVQAGGSLSLSCAASGRTFGFYAMGWYIQAPGSERELVASITWRGGRKYYADSEMGSFTISRDNAKNTCYLQMISLKPEDTAVYYCAAAYHPYQGVTGHDGGYDYWGQGTQVTVSS”, for which the “polyreactivity (PSR sort gate)” value is “low polyreactivity”.

Consider “QVQLVDSVGGLVQAGGSLSLSCAASGLIFASNAMGWYRQAPGKERELLATIRRGTSTNYADSVKGRFTISRDNAKNTVYLEMNSLKPEDTAVYYCAADGYTYKFDYWGQGTQVTVSS”, for which the “polyreactivity (PSR sort gate)” value is recorded as “low polyreactivity”.
